For this assay, the target named is CD94-NKG2A-mFc singlechain (human). Briefly: SPR, scCD94/NKG2A chip saturated with humZ270 10 µg/ml, then HLA-E tetramer 8 µg/ml (competitor: HLA-E tetramer). (In general: In SPR one partner is held on a chip, and binding of the other changes the refractive index at the surface.)
CD94-NKG2A-mFc singlechain (human), sequence (chain, as listed by the source): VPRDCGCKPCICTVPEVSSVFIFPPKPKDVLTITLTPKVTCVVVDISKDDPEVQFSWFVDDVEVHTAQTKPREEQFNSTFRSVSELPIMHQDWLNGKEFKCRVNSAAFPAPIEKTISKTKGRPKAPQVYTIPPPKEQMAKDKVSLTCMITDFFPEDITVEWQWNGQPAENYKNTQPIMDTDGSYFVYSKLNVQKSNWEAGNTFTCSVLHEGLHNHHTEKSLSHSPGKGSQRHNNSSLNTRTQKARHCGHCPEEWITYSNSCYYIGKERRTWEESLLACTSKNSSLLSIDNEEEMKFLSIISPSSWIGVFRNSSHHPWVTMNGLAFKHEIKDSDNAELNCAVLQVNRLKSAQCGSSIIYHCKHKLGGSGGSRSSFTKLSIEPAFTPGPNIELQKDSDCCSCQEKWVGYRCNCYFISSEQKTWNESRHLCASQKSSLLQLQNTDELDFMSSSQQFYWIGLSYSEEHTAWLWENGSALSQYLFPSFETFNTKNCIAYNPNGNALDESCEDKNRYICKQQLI

As for humZ270 (antibody), the percentage of inhibition of HLA-E tetramer binding is 81.8%.

(Values after US20090281035A1.)
